Measured values taken from patent CN116178530A (SHANGHAI JUNSHI BIOSCIENCES CO LTD; JUNMENG BIOSCIENCES CO …, dated 2023).

Assays:
[1] = target: Alpha突变株RBD蛋白(货号SPD-C82E6，ACRO Biosystems) (SARS-CoV-2, UniProt P0DTC2 319-537)
[2] = target: Beta突变株RBD蛋白(货号SPD-C82E5，ACRO Biosystems) (SARS-CoV-2, UniProt P0DTC2 319-537)
[3] = target: Gamma突变株RBD蛋白(货号SPD-C82E7，ACRO Biosystems) (SARS-CoV-2, UniProt P0DTC2 319-537)
[4] = target: Kappa突变株RBD蛋白(货号SPD-C82Ec，ACRO Biosystems) (SARS-CoV-2, UniProt P0DTC2 319-537)
[5] = target: Epsilon突变株RBD蛋白(货号SPD-C82E3，ACRO Biosystems) (SARS-CoV-2, UniProt P0DTC2 319-537)
[6] = target: Delta突变株RBD蛋白(货号SPD-C82Ed，ACRO Biosystems) (SARS-CoV-2, UniProt P0DTC2 319-537)
[7] = target: SARS-CoV-2的Alpha突变株(B.1.1.7)假病毒的刺突蛋白 (SARS-CoV-2, UniProt P0DTC2 14-1273); test: cell-based or functional assay
[8] = target: SARS-CoV-2的Beta突变株(B.1.351)假病毒的刺突蛋白 (SARS-CoV-2, UniProt P0DTC2 14-1273); test: cell-based or functional assay
[9] = target: SARS-CoV-2的Gamma突变株(P.1)假病毒的刺突蛋白 (SARS-CoV-2, UniProt P0DTC2 14-1273); test: cell-based or functional assay
[10] = target: SARS-CoV-2的Kappa突变株(B.1.617.1)假病毒的刺突蛋白 (SARS-CoV-2, UniProt P0DTC2 14-1273); test: cell-based or functional assay
[11] = target: SARS-CoV-2的Delta突变株(B.1.617.2)假病毒的刺突蛋白 (SARS-CoV-2, UniProt P0DTC2 14-1273); test: cell-based or functional assay

B1: JS5-10 (antibody, human IgG1, kappa, L234A L235A, V domains shown)
VH: EVQLLESGGGLVQPGGSLRLSCAASGFTFSSYAMSWVRQAPGKGLEWVSAIVGSGGSTYYADSVKGRFIISRDNSKNTLYLQMNSLRAEDTAVYYCAKSLIYGHYDILTGAYYFDYWGQGTLVTVSS
VL: DIQMTQSPSSVSASVGDRVTIPCRASQGIGNWLAWYQQKPGKAPKLLIYAASSLQSGVPSRFSGSGSGTDFTLTISSLQPEDFATYYCQQANSFPPFGQGTRLEIKR
- Kd [1]: 1.3 nM
- koff [1]: 0.000316 s⁻¹
- kon [1]: 243000 M⁻¹ s⁻¹
- Kd [2]: 0.88 nM
- koff [2]: 0.000176 s⁻¹
- kon [2]: 201000 M⁻¹ s⁻¹
- Kd [3]: 1.12 nM
- koff [3]: 0.000241 s⁻¹
- kon [3]: 216000 M⁻¹ s⁻¹
- Kd [4]: 0.875 nM
- koff [4]: 0.000172 s⁻¹
- kon [4]: 196000 M⁻¹ s⁻¹
- Kd [5]: 1.17 nM
- koff [5]: 0.000226 s⁻¹
- kon [5]: 193000 M⁻¹ s⁻¹
- Kd [6]: 0.73 nM
- koff [6]: 0.000161 s⁻¹
- kon [6]: 220000 M⁻¹ s⁻¹
- 假病毒中和 IC50 (荧光素酶报告基因, 293-ACE2细胞) [7]: 1.18 ng/mL
- 假病毒中和 IC50 (荧光素酶报告基因, 293-ACE2细胞) [8]: 8.47 ng/mL
- 假病毒中和 IC50 (荧光素酶报告基因, 293-ACE2细胞) [9]: 0.449 ng/mL
- 假病毒中和 IC50 (荧光素酶报告基因, 293-ACE2细胞) [10]: 5.4 ng/mL
- 假病毒中和 IC50 (荧光素酶报告基因, 293-ACE2细胞) [11]: 5.56 ng/mL
